Assay [1] has as its target T1, amphyphisin SH3 (AMPH_HUMAN), P49418.
T1 chain: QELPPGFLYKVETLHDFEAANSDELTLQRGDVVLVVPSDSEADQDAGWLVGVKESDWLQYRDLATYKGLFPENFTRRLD
Put plainly: SPOT array.

For assay [2], the target named is endophilin SH3 (SH3G2_HUMAN), Q99962. Put plainly: SPOT array.

For DPNAPKRPLSGFFL [Q9UJ13 78-91], the normalised SPOT signal, Boehringer light units (BLU); mean over the file's lines of this peptide turned out to be 40.7 in assay [1] and 1710 in assay [2].
The corresponding values for DPSGLPRPQKIPIS [Q9H591 280-293] are 149 and 112.
The corresponding values for AEEQLRRPRIVHVG [Q9UBR1 62-75] are 24.5 and 35.1.
On to DPRRPKRPRTILTT [O60663 192-205], for which the figures for the normalised SPOT signal, Boehringer light units (BLU); mean over the file's lines of this peptide in assay [1] and in assay [2] were 183 and 948, respectively.
The matching figures for DPNAPKRPPSGFFL [O15347 88-101]: 20 and 5320.
For DNIPLSRPKRNLSR [Q9Y4P9 18-31], the normalised SPOT signal, Boehringer light units (BLU); mean over the file's lines of this peptide in assay [1] was found to be 1930; in assay [2], 138.
The corresponding values for DNGGFKRPLAPSGR [Q9Y5U2 118-131] are 31.7 and 98.6.
The corresponding values for DLHPPPRPPSPTEI [O43154 1259-1273] are 64.8 and 2640.
Regarding DPNTFKRPQTPPKI [Q9Y4E3 337-350], the normalised SPOT signal, Boehringer light units (BLU); mean over the file's lines of this peptide in assay [1] is 27.3; in assay [2], 39.4.
As to DPEVLKRPEYFGKF [Q9NZN6 122-135], the normalised SPOT signal, Boehringer light units (BLU); mean over the file's lines of this peptide in assay [1] worked out at 43.9; in assay [2] it was 108.
The corresponding values for DPRTPRRPRSARAG [Q9H901 24-37] are 59.5 and 203.
The matching figures for DPNAPKRPMSAYML [Q08945 543-556]: 41.4 and 82.6.
The corresponding values for DLLSPRRPPDDPWA [BAC03422 263-277] are 20.5 and 83.
For AEGPPKRPGGSSPL [P48634 1665-1678], the figures for the normalised SPOT signal, Boehringer light units (BLU); mean over the file's lines of this peptide in assay [1] and in assay [2] were 50.3 and 291, respectively.
On to DPNFPNKPPLTFDI [Q9H314 810-824], for which the normalised SPOT signal, Boehringer light units (BLU); mean over the file's lines of this peptide is 45.5 in assay [1] and 47.9 in assay [2].
Consider DLPGPRRPAAAAAM [Q9NQ62 12-25], for which the normalised SPOT signal, Boehringer light units (BLU); mean over the file's lines of this peptide was found to be 33.3 in assay [1] and 66 in assay [2].
The matching figures for DPNAPKRPPLAFFL [P23497 765-778]: 32 and 8420.
The corresponding values for DPQAPRRPPSSFLL [Q8WW32 89-102] are 108 and 1200.
The matching figures for DNLKLFRPKKLLPK [Q9BQL6 374-387]: 41.9 and 71.6.
Take DLSGLKRPSSSAST [Q9Y338 401-414]: the normalised SPOT signal, Boehringer light units (BLU); mean over the file's lines of this peptide in assay [1] is 31.5; in assay [2] it was 27.9.
The corresponding values for DPSPPRRPQHNSSG [Q96LS7 199-212] are 45 and 238.
For the molecule DPNAPKRPPSAFFL [P09429 90-103], the normalised SPOT signal, Boehringer light units (BLU); mean over the file's lines of this peptide was found to be 39.5 in assay [1] and 3610 in assay [2].
The corresponding values for DPNPPKRPLIFDTN [O14802 1370-1383] are 20.6 and 33.1.
The matching figures for AEERPRRPSQEQSA [Q9Y4D0 963-976]: 17.3 and 882.
The matching figures for DPEDLKRPDPASLK [Q8WTY4 218-231]: 16.1 and 82.4.
DMAIPSKPPAASPE [Q8TEH3 531-545]: the normalised SPOT signal, Boehringer light units (BLU); mean over the file's lines of this peptide in assay [1] was 40.1; in assay [2] it was 80.
The corresponding values for DPPGPPRPPKEPGP [Q9NR59 1285-1299] are 73.4 and 468.
Take DMQSFRRPSAASID [Q96QH2 513-526]: the normalised SPOT signal, Boehringer light units (BLU); mean over the file's lines of this peptide turned out to be 16.7 in assay [1] and 56 in assay [2].

Source of the values: article PMC314469, “Protein Interaction Networks by Proteome Peptide Scanning” (PLoS Biology, 2004).
